B1: CUL4B (endogenous) (other, UniProt Q13620 1-913, looked up)
chain: MMSQSSGSGDGNDDEATTSKDGGFSSPSPSAAAAAQEVRSATDGNTSTTPPTSAKKRKLNSSSSSSSNSSNEREDFDSTSSSSSTPPLQPRDSASPSTSSFCLGVSVAASSHVPIQKKLRFEDTLEFVGFDAKMAEESSSSSSSSSPTAATSQQQQLKNKSILISSVASVHHANGLAKSSTTVSSFANSKPGSAKKLVIKNFKDKPKLPENYTDETWQKLKEAVEAIQNSTSIKYNLEELYQAVENLCSYKISANLYKQLRQICEDHIKAQIHQFREDSLDSVLFLKKIDRCWQNHCRQMIMIRSIFLFLDRTYVLQNSMLPSIWDMGLELFRAHIISDQKVQNKTIDGILLLIERERNGEAIDRSLLRSLLSMLSDLQIYQDSFEQRFLEETNRLYAAEGQKLMQEREVPEYLHHVNKRLEEEADRLITYLDQTTQKSLIATVEKQLLGEHLTAILQKGLNNLLDENRIQDLSLLYQLFSRVRGGVQVLLQQWIEYIKAFGSTIVINPEKDKTMVQELLDFKDKVDHIIDICFLKNEKFINAMKEAFETFINKRPNKPAELIAKYVDSKLRAGNKEATDEELEKMLDKIMIIFRFIYGKDVFEAFYKKDLAKRLLVGKSASVDAEKSMLSKLKHECGAAFTSKLEGMFKDMELSKDIMIQFKQYMQNQNVPGNIELTVNILTMGYWPTYVPMEVHLPPEMVKLQEIFKTFYLGKHSGRKLQWQSTLGHCVLKAEFKEGKKELQVSLFQTLVLLMFNEGEEFSLEEIKQATGIEDGELRRTLQSLACGKARVLAKNPKGKDIEDGDKFICNDDFKHKLFRIKINQIQMKETVEEQASTTERVFQDRQYQIDAAIVRIMKMRKTLSHNLLVSEVYNQLKFPVKPADLKKRIESLIDRDYMERDKENPNQYNYIA
notes: also called CRL4 component

Assays:
[1] = biological target: T1, DDB1 (endogenous) (UniProt Q16531 2-1140); experiment: co-IP of endogenous CUL4B with DDB1 (anti-CUL4B antibody), control vs FBXO44 KD cells (FIG. 3G)
T1 construct: also called CRL4 component
Procedure: (§1) Immunoprecipitation or co-immunoprecipitation (IP or co-IP): for IP, cells were lysed in IP buffer (50 mM Tris-HCl [pH 7.4], 125 mM NaCl, 1 mM EDTA, 0.1% Triton X-100) with inhibitors (50 mM NaF, 1 mM PMSF, 1 mM Na₃VO₄, 1 μg/mL Aprotinin, 1 μg/mL Leupeptin, 1 μg/mL Pepstatin) followed by sonication and centrifugation to clear insoluble debris. Lysates were then incubated with protein G agarose beads and IgG antibody of the same species as the IP antibody for 2 hr at 4° C. to reduce non-specific binding. The cleared lysates were then incubated with IP antibody overnight at 4° C. Specifically, for Flag IP, 5 μg of anti-Flag antibody (Sigma-Aldrich no. F7425) was used for 2500 μg of protein lysate. For Myc IP, anti-Myc antibody (Cell Signaling Technology no. 2276) was used at 1:1000 dilution. For FBXO44 IP, 5 μL of anti-FBXO44 antibody (Sigma-Aldrich no. HPA003363) was used for 10⁶ cells. Beads were washed with IP buffer, boiled in 1×SDS gel loading buffer, and subjected to electrophoresis.
(§2) Next, to characterize FBXO44's molecular interactions with interactions with SUV39H1, CRL4RBBP4/7, and Mi-2/NuRD, Co-IP experiments were performed as described in example 3. For SUV39H1 IP, anti-SUV39H1 antibody (Millipore no. 05-615) was used at 1:100 dilution. For CUL4B IP, 2 μg of anti-CUL4B antibody (Proteintech no. 12916-1-AP) was used for 2500 μg of protein lysate. […]

[2] = biological target: CUL1 (endogenous) (UniProt Q13616 1-776); experiment: IP from chromatin fractions, immunoblot (FIG. 1F)
[3] = biological target: T2, GATAD2B (endogenous) (UniProt Q8WXI9 1-593); experiment: co-IP of endogenous FBXO44, control vs SUV39H1 KD (FIG. 3I; its legend names GATAD2A)
T2 construct: also called Mi-2/NuRD component
Procedure: as §1, §2

[4] = biological target: B1; experiment: co-IP of endogenous FBXO44 in MDA-MB-231 cells, immunoblot; CRL4 components named CUL4A/CUL4B in the legend of FIG. 4A
[5] = biological target: Flag-Histone H3.1 (UniProt P68431 1-136); experiment: co-IP of endogenous FBXO44 with Flag-Histone H3.1 or H3.3 (FIG. 5B)
Procedure: as §1

[6] = biological target: T3, RBBP7 (endogenous) (UniProt Q16576 2-425); experiment: co-IP of endogenous FBXO44 in MDA-MB-231 cells, immunoblot (FIG. 4A)
T3 construct: also called DCAF RBBP7

[7] = biological target: T4, RBBP4 (endogenous) (UniProt Q09028 2-425); experiment: as above
T4 construct: also called DCAF RBBP4

Measured: binding result

T2 sequence (Q8WXI9 whole entry): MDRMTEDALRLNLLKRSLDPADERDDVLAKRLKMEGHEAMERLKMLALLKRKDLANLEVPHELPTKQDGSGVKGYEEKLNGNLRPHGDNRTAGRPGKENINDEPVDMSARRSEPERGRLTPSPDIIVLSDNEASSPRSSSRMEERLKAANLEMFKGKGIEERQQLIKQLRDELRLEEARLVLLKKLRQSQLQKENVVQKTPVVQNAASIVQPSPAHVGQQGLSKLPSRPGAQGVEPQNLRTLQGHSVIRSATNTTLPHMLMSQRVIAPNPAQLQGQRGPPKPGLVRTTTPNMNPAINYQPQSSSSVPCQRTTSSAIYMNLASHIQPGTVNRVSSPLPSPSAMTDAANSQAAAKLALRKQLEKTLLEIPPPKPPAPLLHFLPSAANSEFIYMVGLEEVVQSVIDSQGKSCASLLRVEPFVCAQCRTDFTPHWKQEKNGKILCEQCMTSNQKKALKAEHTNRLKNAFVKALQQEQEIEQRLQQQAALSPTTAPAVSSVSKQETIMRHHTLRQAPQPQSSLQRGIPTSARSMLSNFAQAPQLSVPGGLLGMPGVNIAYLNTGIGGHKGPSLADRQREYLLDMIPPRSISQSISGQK
T1 sequence (Q16531 2-1140 limits assumed): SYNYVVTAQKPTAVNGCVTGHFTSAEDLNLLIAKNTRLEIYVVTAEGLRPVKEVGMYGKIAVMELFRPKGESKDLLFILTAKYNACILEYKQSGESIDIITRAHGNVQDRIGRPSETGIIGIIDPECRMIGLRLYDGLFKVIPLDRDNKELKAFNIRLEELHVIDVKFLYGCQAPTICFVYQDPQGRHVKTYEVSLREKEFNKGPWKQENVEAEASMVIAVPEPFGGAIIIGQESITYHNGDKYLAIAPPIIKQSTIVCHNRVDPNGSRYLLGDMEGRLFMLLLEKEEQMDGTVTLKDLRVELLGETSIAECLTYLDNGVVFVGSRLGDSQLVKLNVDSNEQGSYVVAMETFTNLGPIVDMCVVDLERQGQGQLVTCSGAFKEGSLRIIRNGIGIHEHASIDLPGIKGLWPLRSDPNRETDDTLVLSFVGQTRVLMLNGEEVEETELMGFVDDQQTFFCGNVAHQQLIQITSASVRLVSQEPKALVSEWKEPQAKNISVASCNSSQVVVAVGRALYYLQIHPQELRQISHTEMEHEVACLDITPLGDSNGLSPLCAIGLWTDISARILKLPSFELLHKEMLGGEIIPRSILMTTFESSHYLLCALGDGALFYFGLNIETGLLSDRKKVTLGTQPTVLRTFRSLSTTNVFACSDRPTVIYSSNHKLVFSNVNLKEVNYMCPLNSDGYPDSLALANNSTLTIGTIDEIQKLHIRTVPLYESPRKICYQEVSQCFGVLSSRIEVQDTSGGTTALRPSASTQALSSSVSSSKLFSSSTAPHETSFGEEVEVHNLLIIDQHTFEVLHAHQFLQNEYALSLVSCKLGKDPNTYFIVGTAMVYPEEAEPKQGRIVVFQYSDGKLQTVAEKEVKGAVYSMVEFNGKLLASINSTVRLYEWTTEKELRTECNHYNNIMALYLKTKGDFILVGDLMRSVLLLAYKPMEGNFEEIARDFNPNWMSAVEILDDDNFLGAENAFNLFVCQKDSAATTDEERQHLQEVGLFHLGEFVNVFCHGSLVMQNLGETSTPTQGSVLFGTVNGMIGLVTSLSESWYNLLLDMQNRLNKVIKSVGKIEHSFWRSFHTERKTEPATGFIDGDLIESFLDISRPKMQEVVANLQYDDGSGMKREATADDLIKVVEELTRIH
CUL1 (endogenous), sequence (Q13616 whole entry): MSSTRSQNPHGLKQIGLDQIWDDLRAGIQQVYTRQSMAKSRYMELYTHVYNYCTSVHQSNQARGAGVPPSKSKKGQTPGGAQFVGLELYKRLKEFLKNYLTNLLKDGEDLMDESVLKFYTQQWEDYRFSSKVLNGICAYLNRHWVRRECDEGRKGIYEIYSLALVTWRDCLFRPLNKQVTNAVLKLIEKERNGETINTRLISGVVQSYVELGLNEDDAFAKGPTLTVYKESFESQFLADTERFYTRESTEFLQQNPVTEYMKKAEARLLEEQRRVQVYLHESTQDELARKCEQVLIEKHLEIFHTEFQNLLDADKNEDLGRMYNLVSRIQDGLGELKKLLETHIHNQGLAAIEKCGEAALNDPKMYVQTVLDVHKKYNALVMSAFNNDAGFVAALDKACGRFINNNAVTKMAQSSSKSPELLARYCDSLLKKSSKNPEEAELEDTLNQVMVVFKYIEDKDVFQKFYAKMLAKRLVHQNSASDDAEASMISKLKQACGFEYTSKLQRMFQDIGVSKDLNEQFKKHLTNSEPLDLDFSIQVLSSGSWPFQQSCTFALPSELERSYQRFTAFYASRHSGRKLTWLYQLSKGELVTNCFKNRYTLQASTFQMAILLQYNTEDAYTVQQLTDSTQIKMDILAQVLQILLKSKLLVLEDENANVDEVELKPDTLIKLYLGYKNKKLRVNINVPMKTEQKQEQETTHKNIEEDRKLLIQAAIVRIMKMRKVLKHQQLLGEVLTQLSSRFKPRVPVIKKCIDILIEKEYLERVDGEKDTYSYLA
T3 sequence (Q16576 2-425 limits assumed): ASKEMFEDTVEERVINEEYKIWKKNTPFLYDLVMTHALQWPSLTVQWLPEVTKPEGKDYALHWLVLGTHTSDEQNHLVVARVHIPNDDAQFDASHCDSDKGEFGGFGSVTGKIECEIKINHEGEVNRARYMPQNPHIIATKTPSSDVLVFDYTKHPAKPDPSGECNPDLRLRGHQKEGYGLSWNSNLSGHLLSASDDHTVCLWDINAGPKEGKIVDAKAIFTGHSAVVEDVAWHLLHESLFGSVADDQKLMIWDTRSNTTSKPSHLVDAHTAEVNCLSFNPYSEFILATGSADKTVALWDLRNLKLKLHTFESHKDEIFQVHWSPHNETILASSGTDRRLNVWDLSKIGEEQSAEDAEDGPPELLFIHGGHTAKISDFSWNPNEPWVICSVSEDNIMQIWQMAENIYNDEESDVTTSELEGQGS
T4 sequence (Q09028 2-425 limits assumed): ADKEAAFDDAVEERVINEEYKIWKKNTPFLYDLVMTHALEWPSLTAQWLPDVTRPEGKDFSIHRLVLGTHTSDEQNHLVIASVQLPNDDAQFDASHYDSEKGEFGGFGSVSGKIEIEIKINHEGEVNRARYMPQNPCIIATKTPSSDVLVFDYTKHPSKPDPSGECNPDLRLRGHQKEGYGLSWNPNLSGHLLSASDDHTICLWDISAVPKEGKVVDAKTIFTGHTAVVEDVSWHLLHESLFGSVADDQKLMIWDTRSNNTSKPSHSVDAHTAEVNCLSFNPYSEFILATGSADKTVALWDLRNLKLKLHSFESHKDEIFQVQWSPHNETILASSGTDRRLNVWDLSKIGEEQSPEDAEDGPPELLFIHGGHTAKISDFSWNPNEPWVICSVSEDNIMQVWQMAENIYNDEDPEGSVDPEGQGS

B1
binds: [1]

B2: FBXO44 (endogenous F-box protein FBXO44) (other, human, UniProt Q9H4M3 1-255, looked up)
chain: MAVGNINELPENILLELFTHVPARQLLLNCRLVCSLWRDLIDLVTLWKRKCLREGFITEDWDQPVADWKIFYFLRSLHRNLLHNPCAEEGFEFWSLDVNGGDEWKVEDLSRDQRKEFPNDQVKKYFVTSYYTCLKSQVVDLKAEGYWEELMDTTRPDIEVKDWFAARPDCGSKYQLCVQLLSSAHAPLGTFQPDPATIQQKSDAKWREVSHTFSNYPPGVRYIWFQHGGVDTHYWAGWYGPRVTNSSITIGPPLP
notes: Endogenous protein in cell lysates or chromatin fractions; also called FBX044
binds: [2] | [3] | [4] | [5] | [6] | [7]
